Experiments:
Assay type in all cases: cell-based, Saccharomyces cerevisiae
ABP1 = assay: DHFR-PCA on solid medium, bait ABP1 (Fig. 1B); conditions: bait ABP1, label = prey
Text: (§1) Supplement 41467_2021_21873_MOESM8_ESM.xlsx, sheet "Fig1B" | column: medsize; medrep; Ratio; Score

BEM1-2 = assay: DHFR-PCA on solid medium, bait BEM1-2 (Fig. 1B); conditions: bait BEM1-2, label = prey
Text: as §1

BEM1-1 = assay: DHFR-PCA on solid medium, bait BEM1-1 (Fig. 1B); conditions: bait BEM1-1, label = prey
Text: as §1

Abp1 PPIs = assay: DHFR-PCA of Abp1 SH3-swapped baits (Fig. 2B-D, S2C, S2F); conditions: number of interactions of Abp1 carrying the named SH3; sheet FigS2A-B
Text: Having determined that multiple PPIs require SH3s, we asked whether the latter establish PPI specificity independently from their host proteins by swapping domains (Fig. 2A). Using the second round of genome editing, we individually replaced Abp1 SH3 with the 27 yeast SH3s and 3 human Abp1 orthologs’ SH3s (CTTN, HCLS1, and DBNL, Fig. 2B). The reintroduction of its own SH3 (Abp1SH3 in Abp1) reconstitutes almost perfectly Abp1’s interaction profile (Kendall’s τ = 0.93, Fig. 2B). […] No homologous SH3 domain fully re-establishes the normal Abp1 PPI profile (Fig. 2B and Supplementary Fig. 2C). However, we observe a significant correlation (cophenetic correlation = 0.20, p value = 0.005, Fig. 2C) between the similarity of PPI profiles (Fig. 2B) and the sequence similarity of the SH3s. […] Nonetheless, a subset of SH3-dependent PPIs is only observed with the endogenous domain. For instance, Hua2 and App1, both well-characterized partners of Abp1[14],[18],[19], are only detected when Abp1 contains its own SH3 (WT or swapped via editing). A given SH3 may therefore not be fully replaceable with other paralogous or orthologous domains. This pattern is confirmed by cellular growth phenotypic analyses (Supplementary Fig. 2D, E). PPIs, SH3 sequence similarity, and growth profiles under stress conditions are correlated (Supplementary Fig. 2D, E). This relationship is particularly clear when analyzing growth on media supplemented with hygromycin.
The stuffing of YSC84 SH3 rendered the strain sterile and was therefore not used for this study as the assays require crosses. For genes containing two SH3s (BZZ1 and BEM1), a combination of this first stuffer with a second one ([…]) coding for a highly similar linker ([…]) was used, which allowed targeting each SH3 position independently. The two N-terminal domains of SLA1, which are separated by six nucleotides, were stuffed by a single stuffer. Cells containing pCAS were selected via the G418 resistance cassette from the plasmid on YPD plates (YPD + NAT 100 μg/ml (DHFR F[1,2] selection) + G418 200 µg/mL (Bioshop Canada)). Colonies were randomly selected and grown in YPD media without G418 to allow plasmid loss. The correct insertion of the stuffer was validated by PCR and Sanger sequencing. The SH3-swapped, -shuffled, and -mutated strains were constructed following a second CRISPR–Cas9 editing step with the same procedures. The stuffer sequences were targeted by specific gRNAs (one gRNA per stuffer) and replaced by PCR amplified specific SH3 (with 40 bp homology arms) or libraries of mutated SH3 domains for Deep Mutational Scanning (DMS) with 78 bp flanking homology regions. Validation of the SH3 domain insertions was done as we previously described except for DMS libraries (see below).
The overall DHFR-PCA pipeline is based on Tarassov et al.[43] and the procedures have also been published as a visualized protocol. The screens were performed with robotically manipulated pin tools (BM5-SC1, S&P Robotics Inc.). First, the preys were cherry-picked from 96-well plates to omnitrays in a 384 format on YPD + HPH solid media. Plates were then combined into the 1536 format on YPD + HPH. The array was constituted of 575 preys previously shown to interact physically with at least one SH3-containing protein as reported in BioGRID V3.4.16 along with 40 negative controls. The prey array comprised a border of control strains of two rows and two columns corresponding to the PPI between LSM8-DHFR F[1,2] and CDC39-DHFR F[3]. This double border was used to remove border effects. Preys are present in duplicate at a randomized position in the 1536 array (except for YAL041W which is present four times per array). Baits were crossed with two prey plates, resulting in four independent bait–prey tests for each PPI. Baits were grown in liquid YPD + NAT and then transferred on solid YPD + NAT omnitrays. They were then replicated on YPD + NAT omnitrays in 1536 array format. […]

Abp1 (1xFLAG) = assay: Western blot expression level of Abp1 SH3-swapped baits (Fig. S2A-B); set-up: Flag (2 bands): unit not given here; conditions: sheet FigS2A-B; for Ratio Swap/WT Flag: Flag signal relative to Abp1 WT (Abp1-1 to Abp1-4 = 1); for Flag (2 bands): Western blot Flag signal (2 bands), Abp1 WT, SH3-deleted or SH3-swapped
Protocol: Precultures of yeast cells expressing baits fused with the DHFR F[1,2]-FLAG were grown overnight at 30 °C with agitation in synthetic complete medium. The next day, cells were expanded in synthetic complete medium to reach their exponential phase (OD600 of around 1.0), pelleted, and frozen at −80 °C. The equivalent of fifty OD600 of cells was resuspended in ice-cold yeast lysis buffer (10 mM Tris-HCl pH 7.4, 150 mM NaCl, 0.5 mM EDTA (Millipore Sigma), 1% Triton X-100 (Millipore Sigma), and one cOmplete Mini Protease Inhibitor Cocktail (Millipore Sigma) per 10 mL) with […] glass beads (Millipore Sigma) and disrupted at 4 °C by 10 cycles of 2 min vortexing and 2 min cooldown. The equivalent of […] of lysed cells was used for the immunoprecipitation of the bait proteins using FLAG-M2 agarose beads (Millipore Sigma). The beads were incubated with the cell lysates for 120 min at 4 °C with a slow rotation, followed by three washes with the yeast lysis buffer.
Protein extracts and affinity-purified baits from yeast and human lysed cells were migrated on 10% polyacrylamide gels. The separated proteins were then transferred to nitrocellulose membranes. Validation of correct protein loading was done with ponceau staining of the membranes. Before the primary antibody incubations, membranes were blocked in 5% milk. Protein signals were detected on an Amersham Imager 600RGB (GE Healthcare) following the incubation of the membranes with the appropriate HRP-conjugated secondary antibodies and the Clarity Western ECL Substrate (Bio-Rad). The antibodies used in this study are M2-HRP (A8592, Sigma, 1/50,000), rabbit anti-FLAG (F7425, Sigma, 1/1000), PAK (SC-881, Santa Cruz, 1/200), p130cas/BCAR1 (SC-860, Santa Cruz, 1/200), actin (Cell Signaling Technology, 1/2000), anti-mouse HRP (Cell Signaling Technology, 1/10,000) and anti-rabbit HRP (Cell Signaling Technology, 1/10,000). The quantification of the WB signals was performed with the Amersham Imager 600 analysis software (GE Healthcare).

[1] = only significant differences showed, PPIs completely lost have a ratio of 0.1 and the gained PPIs 2.5

| Molecule | medrep (log2 median colony size normalized to plate background, PCA score) (ABP1; 2-4 replicates) | Ratio (SH3-deleted/WT medrep) (ABP1; [1]) | medrep (log2 median colony size normalized to plate background, PCA score) (BEM1-2; 2-8 replicates) | Ratio (SH3-deleted/WT medrep) (BEM1-2; [1]) | medrep (log2 median colony size normalized to plate background, PCA score) (BEM1-1; 2-8 replicates) | Ratio (SH3-deleted/WT medrep) (BEM1-1; [1]) | Interactions in Abp1 (Abp1 PPIs) | Ratio Swap/WT Flag (Abp1 (1xFLAG)) | Flag (2 bands) (Abp1 (1xFLAG)) |
| --- | --- | --- | --- | --- | --- | --- | --- | --- | --- |
| YPR055W (protein, UniProt P32855 1-1065, looked up) Exocyst complex component SEC8: MDYLKPAQKGRRRGLSINSLSETQQSAMNSSLDHLQNDLNRINLQWNRILSDNTNPLELALAFLDDTSVGLGHRYEEFNQLKSQIGSHLQDVVNEHSQVFNTNVASYGKAVSSIMQAQEQTLNLKNCLKEANEKITTDKGSLQELNDNNLKYTKMIDVLVNIEELLQIPEKIEENIRKENFHQVQILLERGFILMNNKSLKTVEILKPINQQLELQEHLLFNNLIEEIHDIMYSKSNKTNFTRVTNNDIFKIISISHNGFTSLENYLYNIVNIDIMEHSKTINKNLEQFIHDQSLNKGNIMLQENAATQAPLAPSRNQENEGFNRIGFLLKTINNINKLPVAFNIITERAKEEIHNIIVKSTESIRSKHPSLLKMATSLKNDNHFGLPVQDILSIILRECFWEIFLKLLYAIQCHRAIFEMSNILQPTSSAKPAFKFNKIWGKLLDEIELLLVRYINDPELISSNNGSIKPINGATNNAPTLPKRKNPKIFSLEYNIEDNSSVKDQAFELKALLKDIFPGFSVSSNMDLDSIYVKDESFEQDEPLVPPSVFNMKVILDPFLLFTQSTSTIVPSVLTQNTISSLTFFDDYMNKSFLPKIQMTMDYLFTVEVESNNPYALELSDENHNIFKTALDFQRLFYNLLNVFNTANTFREKISYCILDLLNHFYNYYLGLFNSLIGTSDRHLTRKIITAWLQNGILMDQEQKILNGDETLFHEESIELFKEIPHFYQAGKGLSKSDLFNNLTLDTILQFSASVLWILNWLPGLKKAINIDEVSQEPMLDADRLRSSWTFSESMDLNYSNPSSSPNSLGNLKILLDDKASKKFDETIDGFKTLKFKLITILRFNIRALCIYDIGSFFQNTKIWNMDVGSIELDQNIASLISELRRTESKLKQQLPEKEKNSIFIGLDIVNNYALIKGAKSIKVLNHNGIKKMLRNVNVLQHAYRNLSSEPSKINMNVTMNFYSLCGSSEAELFEYIKDNELPHCSVEDLKTILRLQFSEEMHRQLKRQSTSSTKGSIKPSNKRYTEALEKLSNLEKEQSKEGARTKIGKLKSKLNAVHTANEK | 1.475 | 0.1 | 1.322 | 0.1 | 1.322 | 0.1 | – | – | – |
| Boi2 (protein, UniProt P39969 1-1040, looked up) BEM1-interacting protein 2: MSNDREVPTLSQLNTTVSRDKDVSDTLSPDFDSKGSATGRDGGNFPMYIAINEYFKRMEDELDMKPGDKIKVITDDEEYKDGWYFGRNLRTNEEGLYPVVFTQKITVEKAPTLMRAKSTKRIYSPLTNEDPLLSSTFISENDSNSELPTPQPIETAASISRTANGKIERNLSLKNTMSDIDNALLEFKDDSIGPPDRFINSGRDEEHSITHETILSATDGLDVVESNSKPTTSSSTGFLNGDLENQATLINGIDTTKLNPVEAEFWSPEEITAYFIMEGYDVQSASRFQKHKISGKILLELELVHLKELDINSFGTRFEIFKEIEKIKEAIRTNGRSLNRASKTNNANIYNQLMPPANVDQRASYRGHVRKTSQSLEDLPSQQNFIPTPRNTRNSSASKHRPKSLVFDSQEANANIAPDVQIPQVVEEMAGNENLFVSPRRAPKPPSYPSPAQPPKSPLLNNTRTSPSPAQLYSWQSPTLSFSGPKRTSYIDQYSSSDSNFNSRSALPKNNQGGGKALSPIPSPTRNSVRNEDSEGKLTSSSKRNSVPYYGYAPESSSDRKSSCSSHEEEQFQETMNTFERPTSSIYADGSTIASISNDKLAHEKEGKKKPTRHSSSLSSKSKSDSRRNSSLKRSSSASRTSSFKKSSFMLSPFRQQFTDNAARSSSPEENPITSMPSEKNSSPIVDKKSSKKSRSKRRSVSAKEAEIFTETVKDDKNKRSASEAIKGETLKGKSLRQMTARPVAKKKQTSAFIEGLRSISVKEAMKDADFSGWMSKKGSGAMSTWKTRFFTLHGTRLSYFSSTTDTRERGLIDITAHRVVPAKEDDKLVSLYAASTGKGRYCFKLLPPQPGSKKGLTFTQPRTHYFAVDNKEEMRGWMAALIKTTIDIDTSVPIISSYTTPTVSLSKAQEMLAEAREETKLREQQMLENEEDEDQFLWDQQQLQQQQHDNNQGQADRTISASTQRTSDEDNTISTPNLSSANNTTIGSNGFSSPFLLASGLLSPGVARNSSMRGTEKKGKFSTEEDYFGDNSKHKTDKI | – | – | – | – | – | – | 62 | 0.9819 | 95048 |
| Abp1-2 (protein, UniProt P15891 2-592, looked up) Actin-binding protein: ALEPIDYTTHSREIDAEYLKIVRGSDPDTTWLIISPNAKKEYEPESTGSSFHDFLQLFDETKVQYGLARVSPPGSDVEKIIIIGWCPDSAPLKTRASFAANFAAVANNLFKGYHVQVTARDEDDLDENELLMKISNAAGARYSIQTSSKQQGKASTPPVKKSFTPSKSPAPVSKKEPVKTPSPAPAAKISSRVNDNNDDDDWNEPELKERDFDQAPLKPNQSSYKPIGKIDLQKVIAEEKAKEDPRLVQKPTAAGSKIDPSSDIANLKNESKLKRDSEFNSFLGTTKPPSMTESSLKNDDDKVIKGFRNEKSPAQLWAERKAKQNSGNAETKAEAPKPEVPEDEPEGEPDVKDLKSKFEGLAASEKEEEEMENKFAPPPKKSEPTIISPKPFSKPQEPVKAEEAEQPKTDYKKIGNPLPGMHIEADNEEEPEENDDDWDDDEDEAAQPPLPSRNVASGAPVQKEEPEQEEIAPSLPSRNSIPAPKQEEAPEQAPEEEIEEEAEEAAPQLPSRSSAAPPPPPRRATPEKKPKENPWATAEYDYDAAEDNELTFVENDKIINIEFVDDDWWLGELEKDGSKGLFPSNYVSLGN | – | – | – | – | – | – | 86 | 1 | 221127 |
